From paper PMC3159919 (Structure (London, England : 1993), 2011) come the findings set out here.

For orientation: stoichiometry N means the number of molecules, sites or subunits per partner or assembly.

Data set [1] concerns the molecule itself. Nature of the data set: pulse gradient diffusion NMR + NMR spin relaxation.
Data set [2] deals with the molecule itself. Kind of data set: NMR residual dipolar couplings.

B1: wild type CCL5 (RANTES) (natural protein, UniProt P13501 24-91, looked up)
chain: SPYSSDTTPCCFAYIARPLPRAHIKEYFYTSGKCSNPAVVFVTRKNRQVCANPEKKWVREYINSLEMS
For the protein B1, in data set [1], the “stoichiometry N” value was 4.

B2: CCL5 E66S mutant (natural protein, UniProt P13501 24-91, looked up)
chain: SPYSSDTTPCCFAYIARPLPRAHIKEYFYTSGKCSNPAVVFVTRKNRQVCANPEKKWVREYINSLSMS
Regarding B2, in data set [2], the binding result is recorded as “binds”.
